Assays:
His-NinH N18A = target: T1, His-NinH N18A (Bacteriophage lambda (cI857 Sam7), UniProt P03771 1-68, A15T;N18A); assay: MST; intermediate effect; MST: PBS pH 7.4 + 0.05% Tween-20, 22 C; anisotropy: 6.7 mM Tris-HCl pH 8.0, 3.3 nM (so in the source) sodium acetate, 2 mM EDTA, 25 C; EMSA (32P): 50 mM Tris-HCl pH 8.0, 5 mM EDTA, 1 mM DTT, 5% glycerol, 100 ug/ml BSA, on ice; EMSA (Cy520): PBS pH 7.4, room temp; settings: protein: recombinant; tags: N-His6; chain copies: 2; label: 5'-Cy5 on strand 1; blunt
T1 sequence: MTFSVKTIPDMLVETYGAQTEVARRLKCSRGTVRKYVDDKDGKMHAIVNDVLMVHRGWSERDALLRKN

His-NinH T32A = target: T2, His-NinH T32A (Bacteriophage lambda (cI857 Sam7), UniProt P03771 1-68, A15T;T32A); assay: MST; MST: PBS pH 7.4 + 0.05% Tween-20, 22 C; anisotropy: 6.7 mM Tris-HCl pH 8.0, 3.3 nM (so in the source) sodium acetate, 2 mM EDTA, 25 C; EMSA (32P): 50 mM Tris-HCl pH 8.0, 5 mM EDTA, 1 mM DTT, 5% glycerol, 100 ug/ml BSA, on ice; EMSA (Cy520): PBS pH 7.4, room temp; settings: protein: recombinant; tags: N-His6; chain copies: 2; label: 5'-Cy5 on strand 1; blunt
T2 sequence: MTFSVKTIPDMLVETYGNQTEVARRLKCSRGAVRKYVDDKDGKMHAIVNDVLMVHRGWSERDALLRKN

His-NinH S29A = target: T3, His-NinH S29A (Bacteriophage lambda (cI857 Sam7), UniProt P03771 1-68, A15T;S29A); assay: as above; settings: protein: recombinant; tags: N-His6; chain copies: 2; label: 5'-Cy5 on strand 1; blunt
T3 sequence: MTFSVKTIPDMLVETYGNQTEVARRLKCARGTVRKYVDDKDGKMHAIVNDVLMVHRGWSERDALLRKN

His-NinH K35A = target: T4, His-NinH K35A (Bacteriophage lambda (cI857 Sam7), UniProt P03771 1-68, A15T;K35A); assay: as above; settings: protein: recombinant; tags: N-His6; chain copies: 2; label: 5'-Cy5 on strand 1; blunt
T4 sequence: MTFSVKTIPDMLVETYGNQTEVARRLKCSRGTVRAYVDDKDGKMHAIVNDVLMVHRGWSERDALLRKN

His-NinH R56A = target: T5, His-NinH R56A (Bacteriophage lambda (cI857 Sam7), UniProt P03771 1-68, A15T;R56A); assay: as above; settings: protein: recombinant; tags: N-His6; chain copies: 2; label: 5'-Cy5 on strand 1; blunt
T5 sequence: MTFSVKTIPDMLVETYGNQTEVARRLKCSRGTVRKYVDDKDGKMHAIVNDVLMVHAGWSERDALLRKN

His-NinH wt [1] = target: T6, His-NinH wt (Bacteriophage lambda (cI857 Sam7), UniProt P03771 1-68, A15T); assay: as above; settings: protein: recombinant; tags: N-His6; chain copies: 2; label: 5'-Cy5 on strand 1; blunt
T6 sequence: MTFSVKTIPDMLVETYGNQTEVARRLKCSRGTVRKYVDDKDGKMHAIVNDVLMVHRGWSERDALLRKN

His-NinH wt [2] = target: T6, His-NinH wt; assay: EMSA; sub-micromolar; PBS; MST: PBS pH 7.4 + 0.05% Tween-20, 22 C; anisotropy: 6.7 mM Tris-HCl pH 8.0, 3.3 nM (so in the source) sodium acetate, 2 mM EDTA, 25 C; EMSA (32P): 50 mM Tris-HCl pH 8.0, 5 mM EDTA, 1 mM DTT, 5% glycerol, 100 ug/ml BSA, on ice; EMSA (Cy520): PBS pH 7.4, room temp; settings: protein: recombinant; tags: N-His6; chain copies: 2; label: 5'-Cy5 on strand 1; blunt
His-NinH H45A = target: T7, His-NinH H45A (Bacteriophage lambda (cI857 Sam7), UniProt P03771 1-68, A15T;H45A); assay: MST; retained significant binding; MST: PBS pH 7.4 + 0.05% Tween-20, 22 C; anisotropy: 6.7 mM Tris-HCl pH 8.0, 3.3 nM (so in the source) sodium acetate, 2 mM EDTA, 25 C; EMSA (32P): 50 mM Tris-HCl pH 8.0, 5 mM EDTA, 1 mM DTT, 5% glycerol, 100 ug/ml BSA, on ice; EMSA (Cy520): PBS pH 7.4, room temp; settings: protein: recombinant; tags: N-His6; label: 5'-Cy5 on strand 1; blunt
T7 sequence: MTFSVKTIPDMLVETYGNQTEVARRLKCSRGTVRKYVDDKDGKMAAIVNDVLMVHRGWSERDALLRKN

B1: Cy520 (NinH consensus) (dsDNA)
DNA 1: ACCGATCAAGAATTGTGCAT
DNA 2: ATGCACAATTCTTGATCGGT
In the case of B1, the Kd (His-NinH N18A) is reported as > 220 nM, the binding result (His-NinH T32A) is reported as “no binding” and the Kd (His-NinH S29A) is reported as 13 ± 2.7 nM. For the same binder, the binding result (His-NinH K35A) was “no binding”, the binding result (His-NinH R56A) was “no binding” and the Kd (His-NinH wt [1]) was 5.6 ± 1.5 nM. For the same binder, the Kd (His-NinH wt [2]) was < 1000 nM and the Kd (His-NinH H45A) was > 350 nM.

Source: paper PMC7166090, “A bacteriophage mimic of the bacterial nucleoid-associated protein Fis” (Biochemical Journal, 2020)
